Laboratory results as given in patent US5227469A, “Platelet aggregation inhibitors from the leech” (Genentech, Inc., priority 1990, dated 1993).
Where two headings read alike, the source gives them in different places. No end group written: not given here.

Assays:
GP IIb IIIa [1] = target: T1, GP IIb IIIa (Homo sapiens, UniProt P05106+P08514); assay: Fg/GP IIb IIIa solid phase ELISA (inhibition of GP IIb IIIa binding to immobilized fibrinogen); details: for activity in GP IIb IIIa /Fg ELISA compared with decorsin purified from whole leech homogenate: specific activity (IC50); for half maximal dilution / total units / specific activity (U/mg): Table III; for half maximal dilution: dilution giving half maximal response in ELISA, fractions from 310 g P. ornata; for total units: half maximal dilution multiplied by total volume in ml; for specific activity (U/mg): total units per mg total protein
T1 construct: GP IIb IIIa was purified from outdated human platelets as previously described; from tissue; host or cells: outdated human platelets
Procedure: The Fg/GP IIb IIIa ELISA was performed by a modification of the method of Nachman and Leung (Nachman, R. L. et al. (1982) J. Clin. Invest. 69, 263-269) according to the following protocol, with washes of phosphate buffered saline containing 0.01% Tween 20 between each step:
Microtiter plates were coated with purified human fibrinogen (10 μg/ml), washed, and then blocked with TACTS, 0.5% BSA. The plates were washed and samples to be evaluated were added, followed immediately by addition of purified GP IIb IIIa (40 μg/ml) in TACTS, 0.5% BSA (Calbiochem). After a 1 hr incubation, the plate was washed and AP3 (1 μg/ml) was added.
Following a 1 hr incubation and another wash, goat anti-mouse IgG conjugated to horseradish peroxidase was added. A final wash was performed, and developing reagent buffer (0.66 mg/ml o-phenylenediamine dihydrochloride, 0.012% H2 O2, 22 mM citrate, 50 mM phosphate, pH 5.0) added; plates were incubated until color developed.
The reaction was stopped with 1N H2 SO4 and the absorbance at 492 nm measured. A four parameter fit (Marquardt, D. W. (1963) J. Soc. Indust. Appl. Math 11, 431-441) was used to estimate the half maximal inhibition concentration.

[2] = tested on: human platelet rich plasma (PRP)
Procedure: The Fg/GP IIb IIIa ELISA was performed as previously described (Dennis, M. S., Henzel, W. J., Pitti, R. M., Lipari, M. T., Napier, M. A., Deisher, T. A., Bunting S. and Lazarus, R. A. (1990) Proc. Natl. Acad. Sci. USA, 87, 2471-2475; and Seymour, J. L., Henzel, W. J., Nevins, B., Stults, J. T., and Lazarus, R. A. (1990) J. Biol. Chem. 265, 10143-10147).Platelet aggregation assays were carried out in human platelet rich plasma (PRP) as reported earlier (Dennis, M. S., Henzel, W. J., Pitti, R. M., Lipari, M. T., Napier, M. A., Deisher, T. A., Bunting, S. and Lazarus, R. A. (1990) Proc. Natl. Acad. Sci. USA, 87, 2471-2475; and Seymour, J. L., Henzel, W. J., nevins, B., Stults, J. T., and Lazarus, R. A. (1990) J. Biol. Chem. 265, 10143-10147).
Platelet aggregation assays were performed in PRP as follows:
50 ml whole human blood (9 parts) was drawn on 3.8% Na citrate (1 part) from a donor who had not taken any aspirin or related medication for at least two weeks. Blood was centrifuged at 160×g for 10 minutes at 22° C., allowed to stand for five minutes, and the PRP was decanted. Platelet poor plasma (PPP) was prepared from the remaining blood by centrifugation at 2000×g for 25 minutes at 22° C. PRP platelet count was measured on a Baker 9000 hematology analyzer and diluted to about 300,000 platelets/μL using PPP.
Light transmittance was recorded after the addition of ADP (8 μM), which initiated platelet aggregation. The inhibition of platelet aggregation was measured at the maximum aggregation response.

GP IIb IIIa [3] = target: T1, GP IIb IIIa; assay: Binding to immobilized GP IIb IIIa affinity resin, elution with EDTA; details: eluted by EDTA
Procedure: Immediately before coupling, approximately 10 ml Affi-Prep 10 resin was washed with 300 ml ice cold 50 mM sodium acetate, pH 4.5 in a coarse sintered glass funnel. After removing excess buffer, approximately 4 ml washed resin was transferred to a 15 ml conical tube containing 8 mg purified GP IIb IIIa which had been previously dialyzed into 0.1M sodium bicarbonate, 2 mM CaCl2, pH 8.0.
The coupling was carried out on a rocking platform at room temperature for 2 hours, and then overnight at 4° C. Excess reactive groups on the resin were blocked by incubation with 0.1M ethanolamine, 2 mM CaCl2, pH 9.0 for 1 hour at room temperature. The resin was then transferred to a sintered glass funnel, and washed in an alternating fashion with 20 ml aliquots of 0.1M sodium acetate, pH 4.5, and 0.1M Tris, pH 7.5, each containing 0.5M NaCl and 2 mM CaCl2, to remove any non-covalently bound material. A total of approximately 300 ml of each buffer was used in this cycle washing. Finally, the coupled GP IIb IIIa resin was washed with 100 ml 50 mM Tris, pH 7.5 containing 2 mM CaCl2 and stored at 4° C. prior to use.
The affinity column (ca. 4 ml of resin) was equilibrated in 50 mM Tris, pH 7.5 containing 2 mM CaCl2. The neutralized TFA pool was loaded onto the column at a flow rate of 0.5 ml/min and 25 ml fractions were collected. […]

[4] = target: glycoprotein IIb IIIa (GP IIb IIIa), purified from outdated human platelets (human) (UniProt P08514); assay: GP IIb IIIa/Fg ELISA, IC50 against the reference GRGDV
[5] = target: glycoprotein IIb IIIa (GP IIb IIIa), purified from outdated human platelets (human) (UniProt P08514); assay: Fg/GP IIb IIIa solid phase ELISA, inhibition of GP IIb IIIa binding to immobilized fibrinogen
[6] = target: glycoprotein IIb IIIa (GP IIb IIIa), purified from outdated human platelets (human) (UniProt P08514); assay: Fg/GP IIb-IIIa solid phase ELISA
[7] = target: GP IIb IIIa on human platelets (platelet rich plasma) (human) (UniProt P08514)
[8] = target: glycoprotein IIb IIIa (GP IIb IIIa), purified from outdated human platelets (human) (UniProt P08514); assay: Fg/GP IIb IIIa ELISA units per mg protein
[9] = target: glycoprotein IIb IIIa (GP IIb IIIa), purified from outdated human platelets (human) (UniProt P08514); assay: Fg/GP IIb IIIa ELISA, dilution of the 0.018 mg/ml fraction giving a half maximal response
[10] = target: glycoprotein IIb IIIa (GP IIb IIIa), purified from outdated human platelets (human) (UniProt P08514); assay: Fg/GP IIb IIIa ELISA, dilution of the 0.024 mg/ml fraction giving a half maximal response
[11] = target: glycoprotein IIb IIIa (GP IIb IIIa), purified from outdated human platelets (human) (UniProt P08514); assay: Fg/GP IIb IIIa ELISA, dilution of the 0.113 mg/ml fraction giving a half maximal response
[12] = target: glycoprotein IIb IIIa (GP IIb IIIa), purified from outdated human platelets (human) (UniProt P08514); assay: Fg/GP IIb IIIa ELISA, dilution of the 0.020 mg/ml fraction giving a half maximal response
[13] = target: glycoprotein IIb IIIa (GP IIb IIIa), purified from outdated human platelets (human) (UniProt P08514); assay: Fg/GP IIb IIIa ELISA, dilution of the 0.085 mg/ml fraction giving a half maximal response
[14] = target: T2, GP IIb IIIa on human platelets (platelet rich plasma) (human, UniProt P08514); assay: cell-based or functional assay
[15] = target: T2, GP IIb IIIa on human platelets …; assay: cell-based or functional assay; remark: listed apart in the source
[16] = four parameter fit, read-out: IC50 in GP IIb IIIa /Fg ELISA
[17] = Table VI, n in parenthesis, read-out: IC50 (nM) Fg/GP IIb-IIIa solid phase ELISA

## APRLPQCQGDDQEKCLCNKDECPPGQCRFPRGDADPYCE [decorsin, 39-amino acid RGD protein from the leech Macrobdella decora, GP IIb IIIa antagonist]
GP IIb IIIa [1]; [16]
  IC50: ~1.5 nM
GP IIb IIIa [1]; ratio of IC50 values
  potency relative to pentapeptide GRGDV in GP IIb IIIa /Fg ELISA: about 27 times
GP IIb IIIa [1]
  activity in GP IIb IIIa /Fg ELISA compared with decorsin purified from whole leech homogenate: identical
GP IIb IIIa [1]; listed as synthetic native decorsin
  activity in GP IIb IIIa /Fg ELISA compared with decorsin purified from whole leech homogenate: essentially identical
[2]
  activity in platelet aggregation assay compared with native decorsin: essentially identical
GP IIb IIIa [3]
  binding to GP IIb IIIa receptor (words): bound
GP IIb IIIa [3]; listed as Decorsin
  binding to GP IIb IIIa receptor (words): bind

## GRGDV [GRGDV, reference compound] [listing 1 of 2 here]
GP IIb IIIa [1]; [17]
  IC50: 47.5 ± 6.4 nM
GP IIb IIIa [1]; [16]
  IC50: ~40 nM

## GRGDV [GRGDV, reference compound] [listing 2 of 2 here]
[2]; read-out: IC50 in platelet aggregation assay, ADP (8 μM) induced, human PRP
  IC50: ~75000 nM

## IPQCRDVKESGQPNDKCRCNGKPCTVGKCTIARGDDNDKCT [ornatin A2, ornatin isoform isolated from P. ornata]
GP IIb IIIa [1]; FIG. 8 inset, rechromatography of ornatin A
  activity of C18 rp HPLC peaks in Fg/GP IIb IIIa ELISA: active
GP IIb IIIa [1]
  half maximal dilution: 809
  total units: 405
  specific activity (U/mg): 44505 U/mg
GP IIb IIIa [1]; [17]
  IC50: 5.1 nM

## IYVRPTKDELLYCGEFRELGQPDKKCRC [ornatin D, ornatin isoform from P. ornata]
GP IIb IIIa [1]
  half maximal dilution: 1032
  total units: 516
  specific activity (U/mg): 49615 U/mg
GP IIb IIIa [1]; [17]
  IC50: 3.2 ± 0.35 nM

## IYVRPTKDELLYCGEFRELGQPDKKCRCDGKPCTVGRCKFARGDADDKCTSA [ornatin C, ornatin isoform isolated from P. ornata]
GP IIb IIIa [1]
  half maximal dilution: 4422
  total units: 2211
  specific activity (U/mg): 39060 U/mg
GP IIb IIIa [1]; [17]
  IC50: 4.9 ± 0.5 nM

## IYVRPTKDELLYCGEFRELGQPDKKCRCDGKPCTVGRCNFARGDNDDKCI [ornatin E, ornatin isoform isolated from P. ornata]
GP IIb IIIa [1]
  half maximal dilution: 3610
  total units: 1805
  specific activity (U/mg): 42370 U/mg
GP IIb IIIa [1]; [17]
  IC50: 4.5 ± 0.77 nM

## IYVRPTNDELNYCGDFRELGQPDKKCRCDGKPCTVGRCKFARGDNDDKCISA [ornatin B, ornatin isoform isolated from P. ornata]
GP IIb IIIa [1]
  half maximal dilution: 1215
  total units: 608
  specific activity (U/mg): 50670 U/mg
GP IIb IIIa [1]; [17]
  IC50: 3.5 ± 0.25 nM

## N-3 decorsin: isoform which lacks the first three amino terminal residues of decorsin (LPQCQGDDQEKCLCNKDECPPGQCRFPRGDADPYCE)
GP IIb IIIa [1]; [16]
  IC50: ~1.5 nM
[2]
  activity in platelet aggregation assay compared with native decorsin: Comparable activities

## decorsin
[4]
  times more potent than GRGDV: 27 fold
[5]
  IC50: 1.5 nM

## kistrin (from UniProt P30403)
[6]
  IC50: 4.6 nM
[7]
  IC50 (nM), human platelet aggregation assay (ADP activation): 137 nM

## kistrin [reference compound]
GP IIb IIIa [1]; [17]
  IC50: 4.6 ± 0.06 nM
[2]; read-out: IC50 (nM) human platelet aggregation assay, Table VI, ADP activation, n in parenthesis
  IC50: 137 nM

## ornatin A2
[8]
  specific activity (U/mg): 44500 U/mg
[6]
  IC50: 5.1 nM
[9]
  half maximal dilution: 809

## ornatin B
[8]
  specific activity (U/mg): 50700 U/mg
[6]
  IC50: 3.5 nM
[10]
  half maximal dilution: 1220

## ornatin C
[8]
  specific activity (U/mg): 39100 U/mg
[6]
  IC50: 4.9 nM
[11]
  half maximal dilution: 4420

## ornatin D
[12]
  half maximal dilution: 1030
[8]
  specific activity (U/mg): 49600 U/mg
[6]
  IC50: 3.2 nM

## ornatin E
[8]
  specific activity (U/mg): 42400 U/mg
[6]
  IC50: 4.5 nM
[13]
  half maximal dilution: 3610

B1: ornatin C (other)
chain: IYVRPTKDELLYCGEFRELGQPDKKCRCDGKPCTVGRCKFARGDADDKCTSA
[14]
  IC50 (nM), human platelet aggregation assay (ADP activation): 324 nM

## APRLPQCQGDDQEKCLCNKDECPPGQCRFPRGDADPYCE (other) [decorsin]
[14]
  IC50 (nM), human platelet aggregation assay (ADP activation): 314 nM
[15]
  IC50, inhibition of ADP-induced platelet aggregation in human platelet rich plasma: ~0.3 µM

## IYVRPTKDELLYCGEFRELGQPDKKCRCDGKPCTVGRCNFARGDNDDKCI (other) [ornatin E]
[14]
  IC50 (nM), human platelet aggregation assay (ADP activation): 516 nM

## GRGDV
[6]
  IC50: 47.5 nM
[15]
  IC50, inhibition of ADP-induced platelet aggregation in human platelet rich plasma: ~75 µM
[5]
  IC50: 40 nM
